According to PMC11406361, “Several orphan solute carriers functionally identified as organic cation transporters: Substrates specificity compared with known cation transporters” (The Journal of Biological Chemistry, 2024):

Assays:
Experiment in all cases: cells, lysate or membranes
C[N+](C)(C)CCO = details: other: SLC35E1, HEK293, net uptake over empty vector cells; pH 7.4
CC(N)Cc1ccccc1 = details: pH 7.4
CN1CCC[C@H]1c1cccnc1 = details: other: SLC38A10, HEK293, net uptake over empty vector cells; pH 7.4
Clc1cccc(Cl)c1N=C1NCCN1 = details: other: SLC38A10, HEK293, net uptake over empty vector cells; pH 7.4

Row | Substance | Km (C[N+](C)(C)CCO) | Vmax (C[N+](C)(C)CCO) [µmol/min/mg] | Vmax/Km (C[N+](C)(C)CCO) [µL/min/mg] | Km (CC(N)Cc1ccccc1) | Km (CN1CCC[C@H]1c1cccnc1) | Km (Clc1cccc(Cl)c1N=C1NCCN1) | Vmax (Clc1cccc(Cl)c1N=C1NCCN1) [µmol/min/mg] | Vmax/Km (Clc1cccc(Cl)c1N=C1NCCN1) [µL/min/mg]
1 | SLC35E1 (Homo sapiens) | 91.6 (±39.8) μM | 8.71e-05 | 0.95 |  |  |  |  | 
2 | SLC38A10 (Homo sapiens) |  |  |  | 120 (±44.9) μM | 62.0 (±35.6) μM | 162 (±141) μM | 0.000427 | 2.64
